Reference: the supplement of paper PMC12764529
± gives the half width of the 95% confidence interval.

What was measured:
[1] = folding stability dG unfold (combined trypsin and chymotrypsin); higher = more stable
Experimental: (§1)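 Folding stability of de novo designed mini-proteins (<80 aa, no Cys; designed by TrROS, TrMRF, ProteinMPNN and the joint model) was measured by cDNA display proteolysis with trypsin and chymotrypsin. Each protease was used at 11 concentrations in a threefold dilution series plus a no-protease condition. K50 was inferred by Bayesian fitting of sequencing counts, and dG unfold was derived against a sequence-predicted unfolded-state K50 (Tsuboyama et al. method). Sequences shown include variable-length N-terminal GS-type padding (SAGGSAGG...) inside a display construct carrying a PA tag. Rows were kept only if the AF2 dimer inter-PAE was >15, to exclude likely homo-oligomers.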

[2] = folding stability dG unfold from chymotrypsin proteolysis; higher = more stable
Experimental: as §1

Row | Sequence | folding stability dG unfold [1] [kcal/mol] | folding stability dG unfold [2] [kcal/mol]
1 | SAGGEIKIVVSAEELLRKEGKLSEEQRKKLEEALEEAKKLAEEGKEVKVEVEVVPPKPELKPEDKEKKSAGG [r13_731_TrROS_Hall] | < -1 | 0.214 ± 0.086
2 | SAGGSKEEIEKKLKELAEKLGVEVEDIEIKPLSNGKYIAVVKFKDNPNVYAVYEFDGDEIKIVEIKPSAGGS [r8_432_TrMRF] | 5.15 ± 0.57 | 5.04 ± 0.26
3 | SAGGSAGGSAGGSMKKVEVEIPYSFEGPPTFNPEEIEKKLKEEGINAKIKTKYIPKSKEKSAGGSAGGSAGG [r7_355_JUSTAS] | -0.321 ± 0.7 | -0.145 ± 0.39
4 | SAGGSAGGSAGDGDTMPFIMIHPDYLTINTWKFNPDGGLEIKSVKTIPLPPPKPSPDNKKSAGGSAGGSAGG [r11_843_TrROS] | -0.48 ± 0.21 | -0.466 ± 0.45
5 | SAGGSAGGSAGGPWKIKEIETVPEGGKERMTIKIEDDNGKPKKPVHMPPDDLDNLPPDLISAGGSAGGSAGG [r7_263_TrROS] | < -1 | -0.605 ± 0.24
6 | SAGGSAGGSAGKNNKVKLTYTIEVEGEGKPKKIKIEYYLSPNGIPEPPELIKSKAGGLAKSAGGSAGGSAGG [r17_373_TrMRF] | -0.191 ± 0.21 | 0.306 ± 0.13
7 | SAGGSAGGSAGGSLEEKAEAAYKKNPTTVPVELPLPGGVPATLTVTRTSPDSLDITRTLSAGGSAGGSAGGS [r10_395_JUSTAS] | < -1 | 0.232 ± 0.2
8 | SAGGSAGGSAGGPLLALFDPVPGRVVVVGLRPLPEDSYELDPYVLELDPTTGEAKVRKASAGGSAGGSAGGS [r10_1041_TrMRF] | -0.852 ± 0.59 | -0.547 ± 0.42
9 | SAGGGSSSSSIATETFTKEVEVPTEDGKLKKVLVTTTVSRPISLEPKTGKKYSLSTTVTTTTVSPEELSAGG [r13_312_JUSTAS] | < -1 | -0.461 ± 0.58
10 | SAGGSAGGSRWRVSFEGPNGGTQEHDIPVPPGEPVDLDEILDEFKEAHPGGPPRPIKIERPDPSAGGSAGGS [r12_262_TrROS] | -0.651 ± 0.33 | 0.232 ± 0.28
11 | SAGGSAGGSAGGMSVSPEGYSVSVTGSGPRGVPVPASNAAEQRAALAAQPDVSSVTVTASSAGGSAGGSAGG [r11_587_JUSTAS] | -0.883 ± 0.18 | 0.36 ± 0.05
12 | SAGGSAGGSAGGHPVLLTVPRRYTYLLPGTAPRTVTVPVPVVVEVDDPEVALRLARELEGSAGGSAGGSAGG [r7_21_TrMRF] | < -1 | -0.35 ± 0.73
13 | SAGGLSVSSVSTGSDKITVTVTGSGSPVATVEIPPGLPNTEVTATVLPDGSVRVELKTGNTPRTIEVPLSAG [r5_533_JUSTAS] | -0.783 ± 0.28 | -0.445 ± 0.14
14 | SAGMTITIEDLDNGEKVTIEKNPEDPNMVQIEYPNGPEQTFPADEIAEELGLPPSLLQNGIRIKKIKISSAG [r5_156_TrROS] | < -1 | -0.603 ± 0.23
15 | SAGGSAGGSAGIIEFPFPLNEAKKLAENLPPGFRPVNVEPDPDNDRIWVIIQVVPPKKGKSAGGSAGGSAGG [r17_98_TrROS] | < -1 | -0.992 ± 0.73
16 | SAGVEVTSTSVDYTLDSSSPSPLRSSASPVRSAPPVEERPVELVDPSGERRLVTLKEIDPEKGGRVLSGSAG [r5_735_JUSTAS] | 0.185 ± 0.24 | 0.229 ± 0.26
17 | SAGSMTSFPLTLPGGEKISSISVTASPGTEYTTNATLSKDKSKTVTINFDIKPGGEKVVKNISVTTPEESAG [r14_705_JUSTAS] | -0.0181 ± 0.1 | 0.391 ± 0.2
18 | SAGGSAGGSAGGDPDGKPPPKIEFEMETVPIPNPDGQALEIEIFRIKGNGMLFIMIEPYSAGGSAGGSAGGS [r10_1137_TrROS] | 4.47 ± 0.84 | 4.21 ± 0.29
19 | SAMPITVTVKKTVTLPPPGPEHQKLLDPNGTVRTVTVEETETITVSPEEIEKVKEEAEAKGIEEVTVVDSAG [r14_509_JUSTAS] | 0.267 ± 0.15 | 0.732 ± 0.051
20 | SAGGSAGGSIKITLETETETYLDPEDPNRPVTKVKAVKPTIEVPEENPEKLKELAEKLGLELESAGGSAGGS [r12_249_TrMRF] | 0.232 ± 0.1 | 0.723 ± 0.034
21 | SAGGSAGGSAGGGMPYPIKTEVEIKKNGPNISTTETVYRPDGTKIETKKYKIPKKELKKKSAGGSAGGSAGG [r7_602_JUSTAS] | < -1 | 0.154 ± 0.28
22 | SAGGKITIEKKEDGTYTITINGKKFTFKFKPGAKVEIKIEKKKDGTYTITITVTNKDGSKKTFKIKLSAGGS [r16_231_TrROS_Hall] | 4.87 ± 0.47 | 4.85 ± 0.26
23 | SAGVRKIPIESADDLRDEIDKSPGPVIIRNKGNKKYHRIDPDDLNNFAKNGAPIEIMPPDEMPPEMRKQSAG [r5_677_TrROS] | -0.332 ± 0.17 | -0.0447 ± 0.14
24 | SAGGSAGGSGEPRTVLVEVLYDDKPVLIPVTADSEEALPEVARAAIEPLAEKYPHVEIPLPTESAGGSAGGS [r12_230_TrMRF] | -0.66 ± 0.52 | 0.164 ± 0.11

Row | Sequence | folding stability dG unfold [1] [kcal/mol] | folding stability dG unfold [2] [kcal/mol]
25 | SAGKIVIEGEPEKLPEAIEEALKNNPDLKKVTIYYGDKSEEFEKDEEVKFFKPKKNKDGKPFMVLVVEDSAG [r5_130_TrMRF] | -0.00581 ± 0.37 | 0.756 ± 0.23
26 | SAGGSAGGSAGGTLIKTSDDTIVIPIGDPEEAEKAAEEIKAKLGDVDLKVEILSPEELRGSAGGSAGGSAGG [r7_645_JUSTAS] | 0.13 ± 0.14 | 0.487 ± 0.032
27 | SAGGSAGGSAGSTTTRTVELPPGTSLEEVRARLEAEGYTGVVITEVERPPGPRLRVTVVGSAGGSAGGSAGG [r11_800_JUSTAS] | -0.0782 ± 0.22 | 0.293 ± 0.06
28 | SAGGSAGGSAGGTTLLFPDKIIRTLPLPPGAVFDVPPGLTLEGVEEDPSTGTLTVTVKGLSAGGSAGGSAGG [r11_942_JUSTAS] | -0.211 ± 0.24 | 0.0814 ± 0.14
29 | SAGGSAGGSAGGPVVTETPTTSVVYDPAKGTVTYVTPTVVTFPDGTTTTTVASTTVPLPASAGGSAGGSAGG [r11_308_JUSTAS] | 0.0838 ± 0.2 | 0.531 ± 0.15
30 | SAGGSAGGSAGGKTYYVTGKLYLKDKPRVIEVKLPYPSELEEEAPERVKKLAEELAKEESAGGSAGGSAGGS [r10_313_TrMRF] | < -1 | -0.394 ± 0.38
31 | SAGGSAGGSAGEPKIKKKYIIPLKLKDPNTDKVYIANIEVDNKEEVPKIVKKLKDKGYLSSAGGSAGGSAGG [r11_668_TrMRF] | -0.0903 ± 0.4 | 0.351 ± 0.32
32 | SAGGGPGSVSPQPFEEDYTLPDPGEKIRVKVTAYTLPDGSVVERAVSPEPEREFVFTRDGETVTVTPESAGG [r13_117_JUSTAS] | 0.116 ± 0.12 | 0.612 ± 0.088
33 | SAGGSAGGSMTPVHVYVPPSLSPEEARARVRAELRAALPAAEADVPLEDVEVVLRPLPPDVPLSAGGSAGGS [r12_384_JUSTAS] | < -1 | 0.303 ± 0.42
34 | SAGGSAGGSAGGSAPYALVEVLPGGVVVVAYPDGSRRLVEVERDPSSDLWRVLREEDLPSAGGSAGGSAGGS [r4_247_JUSTAS] | 0.278 ± 0.068 | 0.688 ± 0.1
35 | SAGGGSTVVTTTEPAAAVRARVEAEARARGVALDVDVTVEPTPEGPVVTFDVRVDPGAPAVPAANRVSAGGS [r16_262_JUSTAS] | -0.629 ± 0.25 | 0.0214 ± 0.23
36 | SAGGNITPNQAKRQAQEIADWLAQEYQQQNPDMKVKVDVEVDPPDGEIKVDGEWPNGRPMAEITIPVKSAGG [r13_247_TrROS] | -0.618 ± 0.24 | -0.0106 ± 0.13
37 | SAMEELAKKLKELFPNLEIVSIEEEEVEVEGKKRKVLRIKIKNKNGELLEIEFETPEDKEIAELLKKLLSAG [r14_143_TrROS_Hall] | > 6 | 5.53 ± 0.15
38 | KDFGITFKSPETIEEIAKKLGPNVVPTDIKKDPKGYVYAKIPTPDGKETDIVIPADKYSYEEAVKFAKEAES [r1_279_TrMRF] | -0.232 ± 0.13 | 0.228 ± 0.16
39 | SAGSVTPLPNGEVVTLTTEKIGNEVYLVTKTTLPDGSVETETTPLKPTPPPPAVPVDVSNPYRAKLALASAG [r5_715_JUSTAS] | -0.814 ± 0.33 | -0.472 ± 0.35
40 | SAGGSAGGSAGGDEIAKQIAEHFREKGLDKNREIEIRNPENGEKITVRYTPEGGDFEVEPSAGGSAGGSAGG [r7_301_TrROS] | < -1 | -0.057 ± 0.17
41 | SAGGMKKIKVPDGSEIGSVNPKGGIDYVKVKLPGSGVLVEKAVPKGGKLVIPKNIPVELVEIKDYPLSAGGS [r16_123_TrMRF] | -0.366 ± 0.2 | -0.0202 ± 0.12
42 | SAGGSAGGSAGGGPEVEVETETLPTADGRPVRLVRARVPTREYLFLVSPDGEILRRIPVSAGGSAGGSAGGS [r10_97_TrMRF] | -0.331 ± 0.22 | 0.331 ± 0.16
43 | SAGGMPLSTESFVQESSGDGTPFTTTKTTYRDVNGNPLVTPVSTVDPVAGTTTTTVTVDGTPVTTTTPSAGG [r13_948_JUSTAS] | -0.701 ± 0.17 | -0.386 ± 0.2
44 | SAGGSAPKRLRIKFKDPDGKTQKIKIPPGIKSINIQPNNDYVSLMIHNPEDGQSRMLPPMRVDEITSAGGSA [r15_133_TrROS] | < -1 | -0.899 ± 0.48
45 | SAGGEDFTIRTRSPNGEEQKFPFKVDNVEIEPENNHYSIHIKDGKKLTIPPGGIDDIEPDDIKDWIKDSAGG [r13_925_TrROS] | -0.373 ± 0.21 | -0.0875 ± 0.29
46 | SAGGIKELQEALREGNLPEIIKELKKRGYENVKIQPNPDEGTIEIEIERKDPEDGKPEEEELTIPLEPSAGG [r13_359_TrROS] | -0.271 ± 0.21 | 0.184 ± 0.084
47 | SAGGSAGGSAGGMTITKSPEPDLVTVTLPDASGTTVATLTFSPEVVESDPALVAAAAAATSAGGSAGGSAGG [r17_496_JUSTAS] | -0.335 ± 0.39 | 0.516 ± 0.095
